Tests used:
[1] = target: SARS-CoV-2 RBD (residues 319-541), C-terminal his-tag (SARS-CoV-2, Wuhan-Hu-1 (MN908947.3), UniProt P0DTC2); assay: SPR; conditions: both partners purified
[2] = target: SARS-CoV RBD (residues 306-527), C-terminal his-tag (SARS-CoV (GenBank NC_004718.3, Tor2), UniProt P59594); assay: SPR; conditions: both partners purified

B1: P17 antibody (full-length IgG1) (antibody, V domains shown)
VH: QQLVESGGGVVQPGRSLRLSCAASGFTFSSYAMHWVRQAPGKGLEWVAVISYDGSNKYYADSVKGRFTISRDNSKNTLYLQMNSLRAEDTAVYYCARHATLMNNKDIWGQGTLVTVSS
VL: not shown
notes: also called NAb P17
Kd [1]: 96 pM
binding result [2]: no binding

— article PMC7705443 (Cell Research, 2020)
